Assay results as given in publication PMC9352680, “A comprehensive thermodynamic model for RNA binding by the Saccharomyces cerevisiae Pumilio protein PUF4”.

T1: PUF4 RNA-binding domain (Saccharomyces cerevisiae, UniProt P25339 537-888)
T1 sequence: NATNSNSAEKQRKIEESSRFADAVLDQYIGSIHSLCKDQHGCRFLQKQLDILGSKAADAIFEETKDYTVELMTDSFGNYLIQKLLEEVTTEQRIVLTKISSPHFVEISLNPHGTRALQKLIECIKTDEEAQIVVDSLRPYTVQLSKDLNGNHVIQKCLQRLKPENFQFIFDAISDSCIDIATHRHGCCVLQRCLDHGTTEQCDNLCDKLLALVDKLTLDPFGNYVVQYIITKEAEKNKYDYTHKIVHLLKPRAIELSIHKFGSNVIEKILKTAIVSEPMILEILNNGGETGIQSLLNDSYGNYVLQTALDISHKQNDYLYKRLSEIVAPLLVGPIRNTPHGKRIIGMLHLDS


Target: T1, PUF4 RNA-binding domain
Assay: Mg; RNA-MaP; 20 mM Na-HEPES pH 7.4, 30 mM KOAc, 0.75 mM MgCl2, 0.1% Tween-20, 5% glycerol, 0.1 mg/mL BSA, 2 mM DTT; 25 C; 0.0125-409.6 nM protein
Conditions: tags: N-His6-TEV cleaved; C-SNAP kept, Cy3B-labelled; label: tethered on chip by stalled RNA polymerase

Binder | Kd [nM]
UCUCUUUAUAUAAUUAUCUCUU (ssRNA) [Ib_S1_P5E.1_K5.1_C5.1_H5.1_[G2A]_A5.1_[T6A]_F5.1_T5.1] | 1010
UCUCUUUGUAUAAUUAUCUCUU (ssRNA) [Ia_S1_P5E.1_K5.1_C5.1_H5.1_A5.1_[T6A]_F5.1_T5.1] | 5.23
UCUCUUUUUAUUUUUAUCUCUU (ssRNA) [Ib_S1_P5E.1_K5.1_C5.1_H5.1_[G2T]_A5.1_[A7T]_F5.1_T5.1] | > 2300
UCUCUUUCUAUUUUUAUCUCUU (ssRNA) [Ib_S1_P5E.1_K5.1_C5.1_H5.1_[G2C]_A5.1_[A7T]_F5.1_T5.1] | > 2300
UCUCUUUAUAUCAUUAUCUCUU (ssRNA) [Ib_S1_P5E.1_K5.1_C5.1_H5.1_[G2A]_A5.1_[T6C]_F5.1_T5.1] | 752
UCUCUUUUUAUUCUUAUCUCUU (ssRNA) [Ib_S1_P5E.1_K5.1_C5.1_H5.1_[G2T]_A5.1_[A7C]_F5.1_T5.1] | > 2300
Id_ii_S4_P4E.2_K4.1_C4.2_[T-1G]_H4.1_A4.1_F4.1_T4.2_[G10A]_[T11G] (ssRNA) RNA: UUUGACAACUGAUCGUUCUUUCUCGUGUAUAUUAAGUUCUUUCUCGAUCAGUUGUCUUU | 1.39
Id_ii_S4_P4E.3_K4.2_C4.2_[T-1G]_H4.2_A4.1_F4.1_T4.2_[G10T]_[T11C] (ssRNA) RNA: UUUGACAACUGAUCGUUCUUUCUCGUAUAUAUUAUCUUCUUUCUCGAUCAGUUGUCUUU | 13.1
Id_ii_S4_P4E.2_K4.1_C4.2_[T-1A]_H4.1_A4.1_F4.1_T4.2_[T11G] (ssRNA) RNA: UUUGACAACUGAUCGUUCUUUCUCAUGUAUAUUAGGUUCUUUCUCGAUCAGUUGUCUUU | 1.11
Id_ii_S4_P4E.3_K4.2_C4.2_[C-2A]_[T-1C]_H4.2_A4.1_F4.1_T4.2_[G10T]_[T11C] (ssRNA) RNA: UUUGACAACUGAUCGUUCUUUCUACUAUAUAUUAUCUUCUUUCUCGAUCAGUUGUCUUU | 6.68
Id_ii_S4_P4E.3_K4.2_C4.2_[T-1G]_H4.2_A4.1_F4.1_T4.2 (ssRNA) RNA: UUUGACAACUGAUCGUUCUUUCUCGUAUAUAUUAGUUUCUUUCUCGAUCAGUUGUCUUU | 8.91
Id_ii_S4_P4E.3_K4.2_C4.2_[C-2T]_[T-1C]_H4.2_A4.1_F4.1_T4.2_[G10C]_[T11A] (ssRNA) RNA: UUUGACAACUGAUCGUUCUUUCUUCUAUAUAUUACAUUCUUUCUCGAUCAGUUGUCUUU | 12.6
Id_ii_S4_P4E.2_K4.1_C4.2_H4.1_A4.1_F4.1_T4.2_[G10A]_[T11A] (ssRNA) RNA: UUUGACAACUGAUCGUUCUUUCUCUUGUAUAUUAAAUUCUUUCUCGAUCAGUUGUCUUU | 0.422
Id_ii_S4_P4E.3_K4.2_C4.2_[C-2A]_[T-1A]_H4.2_A4.1_F4.1_T4.2_[G10T]_[T11C] (ssRNA) RNA: UUUGACAACUGAUCGUUCUUUCUAAUAUAUAUUAUCUUCUUUCUCGAUCAGUUGUCUUU | 39.7
Id_ii_S4_P4E.2_K4.1_C4.2_[T-1C]_H4.1_A4.1_F4.1_T4.2_[G10T]_[T11G] (ssRNA) RNA: UUUGACAACUGAUCGUUCUUUCUCCUGUAUAUUAUGUUCUUUCUCGAUCAGUUGUCUUU | 0.173
Id_ii_S4_P4E.3_K4.2_C4.2_[C-2T]_H4.2_A4.1_F4.1_T4.2_[G10T]_[T11G] (ssRNA) RNA: UUUGACAACUGAUCGUUCUUUCUUUUAUAUAUUAUGUUCUUUCUCGAUCAGUUGUCUUU | 8.62
Id_ii_S4_P4E.3_K4.2_C4.2_[C-2T]_[T-1A]_H4.2_A4.1_F4.1_T4.2_[G10A]_[T11A] (ssRNA) RNA: UUUGACAACUGAUCGUUCUUUCUUAUAUAUAUUAAAUUCUUUCUCGAUCAGUUGUCUUU | 42
Id_ii_S4_P4E.3_K4.2_C4.2_[C-2T]_H4.2_A4.1_F4.1_T4.2_[G10T]_[T11A] (ssRNA) RNA: UUUGACAACUGAUCGUUCUUUCUUUUAUAUAUUAUAUUCUUUCUCGAUCAGUUGUCUUU | 25.9
Id_ii_S4_P4E.3_K4.2_C4.2_[C-2T]_H4.2_A4.1_F4.1_T4.2_[G10C]_[T11C] (ssRNA) RNA: UUUGACAACUGAUCGUUCUUUCUUUUAUAUAUUACCUUCUUUCUCGAUCAGUUGUCUUU | 9.36
Id_ii_S4_P4E.3_K4.2_C4.2_[T-1G]_H4.2_A4.1_F4.1_T4.2_[G10A] (ssRNA) RNA: UUUGACAACUGAUCGUUCUUUCUCGUAUAUAUUAAUUUCUUUCUCGAUCAGUUGUCUUU | 12.4
Id_ii_S4_P4E.2_K4.1_C4.2_[T-1G]_H4.1_A4.1_F4.1_T4.2 (ssRNA) RNA: UUUGACAACUGAUCGUUCUUUCUCGUGUAUAUUAGUUUCUUUCUCGAUCAGUUGUCUUU | 0.364
Id_ii_S4_P4E.3_K4.2_C4.2_[C-2T]_[T-1C]_H4.2_A4.1_F4.1_T4.2_[G10T]_[T11A] (ssRNA) RNA: UUUGACAACUGAUCGUUCUUUCUUCUAUAUAUUAUAUUCUUUCUCGAUCAGUUGUCUUU | 12
Id_ii_S4_P4E.2_K4.1_C4.2_[T-1A]_H4.1_A4.1_F4.1_T4.2_[G10A] (ssRNA) RNA: UUUGACAACUGAUCGUUCUUUCUCAUGUAUAUUAAUUUCUUUCUCGAUCAGUUGUCUUU | 0.453
Id_ii_S4_P4E.3_K4.2_C4.2_[C-2T]_[T-1C]_H4.2_A4.1_F4.1_T4.2_[G10A] (ssRNA) RNA: UUUGACAACUGAUCGUUCUUUCUUCUAUAUAUUAAUUUCUUUCUCGAUCAGUUGUCUUU | 10.2

Binder | Kd [nM]
Id_ii_S4_P4E.3_K4.2_C4.2_[T-1C]_H4.2_A4.1_F4.1_T4.2_[G10C]_[T11G] (ssRNA) RNA: UUUGACAACUGAUCGUUCUUUCUCCUAUAUAUUACGUUCUUUCUCGAUCAGUUGUCUUU | 9.21
Id_ii_S4_P4E.3_K4.2_C4.2_[C-2G]_[T-1G]_H4.2_A4.1_F4.1_T4.2_[G10A] (ssRNA) RNA: UUUGACAACUGAUCGUUCUUUCUGGUAUAUAUUAAUUUCUUUCUCGAUCAGUUGUCUUU | 125
Id_ii_S4_P4E.3_K4.2_C4.2_[T-1A]_H4.2_A4.1_F4.1_T4.2_[G10C]_[T11A] (ssRNA) RNA: UUUGACAACUGAUCGUUCUUUCUCAUAUAUAUUACAUUCUUUCUCGAUCAGUUGUCUUU | 23
Id_ii_S4_P4E.3_K4.2_C4.2_[C-2A]_H4.2_A4.1_F4.1_T4.2_[G10C]_[T11A] (ssRNA) RNA: UUUGACAACUGAUCGUUCUUUCUAUUAUAUAUUACAUUCUUUCUCGAUCAGUUGUCUUU | 12.2
Id_ii_S4_P4E.3_K4.2_C4.2_[C-2T]_[T-1A]_H4.2_A4.1_F4.1_T4.2_[G10C]_[T11G] (ssRNA) RNA: UUUGACAACUGAUCGUUCUUUCUUAUAUAUAUUACGUUCUUUCUCGAUCAGUUGUCUUU | 28.4
Id_ii_S4_P4E.2_K4.1_C4.2_[T-1C]_H4.1_A4.1_F4.1_T4.2_[G10T]_[T11C] (ssRNA) RNA: UUUGACAACUGAUCGUUCUUUCUCCUGUAUAUUAUCUUCUUUCUCGAUCAGUUGUCUUU | 0.317
Id_ii_S4_P4E.2_K4.1_C4.2_H4.1_A4.1_F4.1_T4.2_[G10T] (ssRNA) RNA: UUUGACAACUGAUCGUUCUUUCUCUUGUAUAUUAUUUUCUUUCUCGAUCAGUUGUCUUU | 0.116
Id_ii_S4_P4E.2_K4.1_C4.2_H4.1_A4.1_F4.1_T4.2_[G10C] (ssRNA) RNA: UUUGACAACUGAUCGUUCUUUCUCUUGUAUAUUACUUUCUUUCUCGAUCAGUUGUCUUU | 0.434
Id_ii_S4_P4E.3_K4.2_C4.2_[T-1C]_H4.2_A4.1_F4.1_T4.2_[G10A] (ssRNA) RNA: UUUGACAACUGAUCGUUCUUUCUCCUAUAUAUUAAUUUCUUUCUCGAUCAGUUGUCUUU | 4.86
Id_ii_S4_P4E.3_K4.2_C4.2_[C-2G]_[T-1C]_H4.2_A4.1_F4.1_T4.2_[G10T]_[T11C] (ssRNA) RNA: UUUGACAACUGAUCGUUCUUUCUGCUAUAUAUUAUCUUCUUUCUCGAUCAGUUGUCUUU | 19.6
Id_ii_S4_P4E.3_K4.2_C4.2_[C-2T]_[T-1C]_H4.2_A4.1_F4.1_T4.2_[G10T]_[T11C] (ssRNA) RNA: UUUGACAACUGAUCGUUCUUUCUUCUAUAUAUUAUCUUCUUUCUCGAUCAGUUGUCUUU | 5.07
Id_ii_S4_P4E.3_K4.2_C4.2_[C-2G]_H4.2_A4.1_F4.1_T4.2_[G10C] (ssRNA) RNA: UUUGACAACUGAUCGUUCUUUCUGUUAUAUAUUACUUUCUUUCUCGAUCAGUUGUCUUU | 38.1
Id_ii_S4_P4E.3_K4.2_C4.2_H4.2_A4.1_F4.1_T4.2_[G10C] (ssRNA) RNA: UUUGACAACUGAUCGUUCUUUCUCUUAUAUAUUACUUUCUUUCUCGAUCAGUUGUCUUU | 5.15
Id_ii_S4_P4E.3_K4.2_C4.2_[C-2A]_[T-1A]_H4.2_A4.1_F4.1_T4.2_[G10C]_[T11G] (ssRNA) RNA: UUUGACAACUGAUCGUUCUUUCUAAUAUAUAUUACGUUCUUUCUCGAUCAGUUGUCUUU | 189
Id_ii_S4_P4E.3_K4.2_C4.2_[C-2G]_H4.2_A4.1_F4.1_T4.2_[G10T] (ssRNA) RNA: UUUGACAACUGAUCGUUCUUUCUGUUAUAUAUUAUUUUCUUUCUCGAUCAGUUGUCUUU | 10.6
Id_ii_S4_P4E.2_K4.1_C4.2_[T-1C]_H4.1_A4.1_F4.1_T4.2_[G10A]_[T11A] (ssRNA) RNA: UUUGACAACUGAUCGUUCUUUCUCCUGUAUAUUAAAUUCUUUCUCGAUCAGUUGUCUUU | 0.435
Id_ii_S4_P4E.3_K4.2_C4.2_[C-2T]_[T-1G]_H4.2_A4.1_F4.1_T4.2_[G10T]_[T11C] (ssRNA) RNA: UUUGACAACUGAUCGUUCUUUCUUGUAUAUAUUAUCUUCUUUCUCGAUCAGUUGUCUUU | 3.99
Id_ii_S4_P4E.3_K4.2_C4.2_[C-2T]_[T-1G]_H4.2_A4.1_F4.1_T4.2_[G10A]_[T11C] (ssRNA) RNA: UUUGACAACUGAUCGUUCUUUCUUGUAUAUAUUAACUUCUUUCUCGAUCAGUUGUCUUU | 3.87
Id_ii_S4_P4E.3_K4.2_C4.2_[C-2T]_H4.2_A4.1_F4.1_T4.2_[G10C]_[T11G] (ssRNA) RNA: UUUGACAACUGAUCGUUCUUUCUUUUAUAUAUUACGUUCUUUCUCGAUCAGUUGUCUUU | 10.1
Id_ii_S4_P4E.3_K4.2_C4.2_[C-2A]_[T-1A]_H4.2_A4.1_F4.1_T4.2_[G10C]_[T11C] (ssRNA) RNA: UUUGACAACUGAUCGUUCUUUCUAAUAUAUAUUACCUUCUUUCUCGAUCAGUUGUCUUU | 47.7
Id_ii_S4_P4E.2_K4.1_C4.2_H4.1_A4.1_F4.1_T4.2_[G10A] (ssRNA) RNA: UUUGACAACUGAUCGUUCUUUCUCUUGUAUAUUAAUUUCUUUCUCGAUCAGUUGUCUUU | 0.324
Id_ii_S4_P4E.3_K4.2_C4.2_[C-2G]_H4.2_A4.1_F4.1_T4.2_[G10A] (ssRNA) RNA: UUUGACAACUGAUCGUUCUUUCUGUUAUAUAUUAAUUUCUUUCUCGAUCAGUUGUCUUU | 62
Id_ii_S4_P4E.3_K4.2_C4.2_[C-2A]_[T-1C]_H4.2_A4.1_F4.1_T4.2_[G10T]_[T11A] (ssRNA) RNA: UUUGACAACUGAUCGUUCUUUCUACUAUAUAUUAUAUUCUUUCUCGAUCAGUUGUCUUU | 24.6
Id_ii_S4_P4E.3_K4.2_C4.2_[C-2T]_[T-1G]_H4.2_A4.1_F4.1_T4.2_[G10T] (ssRNA) RNA: UUUGACAACUGAUCGUUCUUUCUUGUAUAUAUUAUUUUCUUUCUCGAUCAGUUGUCUUU | 1.83
